Assay results published in patent publication US20210340217A1, “NOVEL PEPTIDES AND COMBINATION OF PEPTIDES FOR USE IN IMMUNOTHERAPY AGAINST OVARIAN CANCER AND OTHER CANCERS” (Immatics Biotechnologies GmbH, priority 2017, published 2021).

Target: HLA-B*07:02 (Homo sapiens, UniProt P01889)
Assay: MHC binding assay (UV-ligand exchange, beta2m ELISA)
Conditions: peptide exchange yield
Excerpt: Candidate peptides for T cell based therapies according to the present invention were further tested for their MHC binding capacity (affinity). The individual peptide-MHC complexes were produced by UV-ligand exchange, where a UV-sensitive peptide is cleaved upon UV-irradiation, and exchanged with the peptide of interest as analyzed. Only peptide candidates that can effectively bind and stabilize the peptide-receptive MHC molecules prevent dissociation of the MHC complexes. To determine the yield of the exchange reaction, an ELISA was performed based on the detection of the light chain (β2m) of stabilized MHC complexes. The assay was performed as generally described in Rodenko et al. (Rodenko et al., 2006).
96 well MAXISorp plates (NUNC) were coated over night with 2 ug/ml streptavidin in PBS at room temperature, washed 4× and blocked for 1 h at 37° C. in 2% BSA containing blocking buffer. Refolded HLA-A*02:01/MLA-001 monomers served as standards, covering the range of 15-500 ng/ml. Peptide-MHC monomers of the UV-exchange reaction were diluted 100-fold in blocking buffer. Samples were incubated for 1 h at 37° C., washed four times, incubated with 2 ug/ml HRP conjugated anti-β2m for 1h at 37° C., washed again and detected with TMB solution that is stopped with […]. Absorption was measured at 450 nm. Candidate peptides that show a high exchange yield (preferably higher than 50%, most preferred higher than 75%) are generally preferred for a generation and production of antibodies or fragments thereof, and/or T cell receptors or fragments thereof, as they show sufficient avidity to the MHC molecules and prevent dissociation of the MHC complexes.

Peptide exchange | Substance
“+++” (>50 = +++) | 32 (SPNKGTLSV; listed as Homo sapiens) [compound 32]
“+++” (>50 = +++) | 33 (SPTFHLTL; listed as Homo sapiens) [compound 33]
“+++” (>50 = +++) | 34 (LPRGPLASLL; listed as Homo sapiens) [compound 34]
“+++” (>50 = +++) | 35 (FPDNQRPAL; listed as Homo sapiens) [compound 35]
“++” (>20% = ++) | 36 (APAAWLRSA; listed as Homo sapiens) [compound 36]
“+++” (>50 = +++) | 37 (RPLFQKSSM; listed as Homo sapiens) [compound 37]
“+++” (>50 = +++) | 38 (SPHPVTALLTL; listed as Homo sapiens) [compound 38]
“+++” (>50 = +++) | 39 (RPAPFEVVF; listed as Homo sapiens) [compound 39]
“+++” (>50 = +++) | 40 (KPGTSYRVTL; listed as Homo sapiens) [compound 40]
“+++” (>50 = +++) | 41 (RVRSRISNL; listed as Homo sapiens) [compound 41]
“+++” (>50 = +++) | 118 (SPASRSISL; listed as Homo sapiens) [compound 118]
“+++” (>50 = +++) | 119 (APLPRPGAVL; listed as Homo sapiens) [compound 119]
“++” (>20% = ++) | 120 (RPAMNYDKL; listed as Homo sapiens) [compound 120]
“+++” (>50 = +++) | 121 (VPNQSSESL; listed as Homo sapiens) [compound 121]
“++” (>20% = ++) | 122 (YPGFPQSQY; listed as Homo sapiens) [compound 122]
“+++” (>50 = +++) | 123 (KPSESIYSAL; listed as Homo sapiens) [compound 123]
“+++” (>50 = +++) | 124 (LPSDSHFKITF; listed as Homo sapiens) [compound 124]

Peptide exchange | Substance
“++” (>20% = ++) | 125 (VPVYILLDEM; listed as Homo sapiens) [compound 125]
“++” (>20% = ++) | 126 (KPGPEDKL; listed as Homo sapiens) [compound 126]
“+++” (>50 = +++) | 127 (APRAGSQVV; listed as Homo sapiens) [compound 127]
“+++” (>50 = +++) | 128 (YPRTITPGM; listed as Homo sapiens) [compound 128]
“+++” (>50 = +++) | 129 (APRPASSL; listed as Homo sapiens) [compound 129]
“+++” (>50 = +++) | 130 (FPRLVGPDF; listed as Homo sapiens) [compound 130]
“+++” (>50 = +++) | 131 (APTEDLKAL; listed as Homo sapiens) [compound 131]
“++” (>20% = ++) | 132 (IPGPAQSTI; listed as Homo sapiens) [compound 132]
“+++” (>50 = +++) | 133 (MPNLPSTTSL; listed as Homo sapiens) [compound 133]
“+++” (>50 = +++) | 134 (RPIVPGPLL; listed as Homo sapiens) [compound 134]
“+++” (>50 = +++) | 135 (RVRSTISSL; listed as Homo sapiens) [compound 135]
“+++” (>50 = +++) | 136 (SPFSAEEANSL; listed as Homo sapiens) [compound 136]
“+++” (>50 = +++) | 137 (SPGATSRGTL; listed as Homo sapiens) [compound 137]
“+++” (>50 = +++) | 138 (SPMATTSTL; listed as Homo sapiens) [compound 138]
“+++” (>50 = +++) | 139 (SPQSMSNTL; listed as Homo sapiens) [compound 139]
“+++” (>50 = +++) | 140 (SPRTEASSAVL; listed as Homo sapiens) [compound 140]
